Experimental data reported in the supplement of paper PMC12783771.
± gives the standard deviation of the averaged measurements.

B1: library; numbered along this chain (parent)
chain: MNIQIGELAKRTACPVVTIRFYEQEGLLPPPGRSRGNFRLYGEEHVERLQFIRHCRSLDMPLSDVRTLLSYRKRPDQDCGEVNMLLDEHIRQVESRIGALLELKHHLVELREACSGARPAQSCGILQGLSDCVCDTRGTTAHPSD

Tests used:
[1] = variants of: B1; assay: sfGFP reporter fluorescence (15 h) (µM FITC); higher = higher leak; details: library round: Round 0; ligand: none
Outline: (§1)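 Readout was endpoint sfGFP fluorescence, converted to µM FITC through standard curves. Reactions were 1 μL of BL21 Star (DE3) PANOx-SP extract with pPbrR-sfGFP reporter, 30 μg/mL GamS and linear PbrR templates normalized to 5 nM, containing 1 µM lead chloride, 30 µM zinc acetate or no metal. Incubation lasted 15 hr at 30 °C, with up to three biological replicates.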

[2] = variants of: B1; assay: sfGFP reporter fluorescence (15 h) (µM FITC); higher = stronger transcriptional activation; details: library round: Round 0
Outline: as §1

Variant | sfGFP reporter fluorescence [1] | sfGFP reporter fluorescence ([2]; ligand: 1 µM Pb) | sfGFP reporter fluorescence ([2]; ligand: 30 µM Zn)
L85H | 0.0603 ± 0.0018 | 0.05827 ± 0.00052 | 0.0629 ± 0.00078
L85F | 0.057 ± 0.0029 | 0.0559 ± 0.0013 | 0.0828 ± 0.0021
L85G | 0.0544 ± 0.0023 | 0.0541 ± 0.0013 | 0.0603 ± 0.00078
V16C | 0.0634 | 0.0861 ± 0.0021 | 0.341 ± 0.081
V16G | 0.0594 ± 0.0026 | 0.0812 ± 0.0018 | 0.493 ± 0.014
S70A | 0.0678 ± 0.0052 | 0.072 ± 0.0054 | 0.281 ± 0.061
I5A | 0.0515 ± 0.0039 | 0.05186 ± 0.00026 | 0.0817 ± 0.0036
C123S | 0.0575 ± 0.0021 | 0.0575 ± 0.001 | 0.0552 ± 0.0018
C123W | 0.0575 ± 0.001 | 0.05919 ± 0.00026 | 0.0546 ± 0.0026
C123A | 0.0575 ± 0.001 | 0.0553 | 0.0533 ± 0.00078
C123Y | 0.0586 ± 0.0015 | 0.0579 | 0.0546 ± 0.0026
M60L D64K K104V L107C | 3.73 ± 0.15 | 4.15 ± 0.39 | 3.44 ± 0.57
C134F | 0.081 ± 0.001 | 0.202 ± 0.01 | 1.32 ± 0.51
C134T | 0.06542 ± 0.00026 | 0.0823 ± 0.0049 | 1.21 ± 0.096
C134V | 0.0667 ± 0.00052 | 0.0894 ± 0.0047 | 1.13 ± 0.25
C134M | 0.0693 ± 0.001 | 0.09162 ± 0.00052 | 1.28 ± 0.065
C134A | 0.0652 ± 0.001 | 0.0821 ± 0.0052 | 0.59 ± 0.049
C134S | 0.06597 ± 0.00052 | 0.0814 ± 0.0036 | 1.22 ± 0.1
C114G | 0.052 ± 0.0015 | 0.0541 ± 0.00078 | 0.05 ± 0.00078
C114R | 0.0594 ± 0.001 | 0.06029 ± 0.00026 | 0.0564 ± 0.0015
L69A | 0.0629 ± 0.0018 | 0.0627 ± 0.0021 | 0.2252 ± 0.0013
R39F | 0.0597 ± 0.001 | 0.0588 ± 0.0013 | 0.0555 ± 0.0018

Variant | sfGFP reporter fluorescence [1] | sfGFP reporter fluorescence ([2]; ligand: 1 µM Pb) | sfGFP reporter fluorescence ([2]; ligand: 30 µM Zn)
R39E | 0.0614 ± 0.0013 | 0.0634 | 0.066 ± 0.0015
R39Y | 0.05992 ± 0.00026 | 0.0605 ± 0.0036 | 0.0608 ± 0.0047
D64H | 0.0682 ± 0.001 | 0.12 ± 0.0054 | 1.81 ± 0.088
D64R | 0.064 ± 0.0039 | 0.112 ± 0.0049 | 1.4 ± 0.036
D64E | 0.0581 ± 0.0018 | 0.061 ± 0.0013 | 0.1552 ± 0.00078
D64I | 0.256 ± 0.028 | 0.837 ± 0.025 | 3.78 ± 0.41
R111M | 0.05772 ± 0.00026 | 0.0623 ± 0.0026 | 0.243 ± 0.001
R111P | 0.0577 ± 0.0018 | 0.05846 ± 0.00026 | 0.0542 ± 0.0015
R111D | 0.0585 ± 0.0013 | 0.06707 ± 0.00052 | 0.215 ± 0.0029
R111F | 0.0581 ± 0.00078 | 0.06927 ± 0.00052 | 0.328 ± 0.019
R111S | 0.06102 ± 0.00026 | 0.0951 ± 0.0023 | 1.14 ± 0.11
R11A | 0.0548 ± 0.0023 | 0.0709 ± 0.0013 | 0.565 ± 0.025
L40A | 0.0608 ± 0.0031 | 0.0658 ± 0.0018 | 0.207 ± 0.0036
S122A | 0.06249 ± 0.00026 | 0.0762 ± 0.0015 | 0.687 ± 0.05
P61N K104V G128M | 0.395 ± 0.015 | 1.034 ± 0.006 | 3.13 ± 0.069
P61N K104V G128I | 0.133 ± 0.0086 | 0.341 ± 0.0067 | 1.53 ± 0.083
N83A | 0.061 ± 0.0013 | 0.0867 ± 0.0065 | 0.1411 ± 0.001
N83I | 0.0561 ± 0.0015 | 0.0718 ± 0.001 | 0.055 ± 0.001
N83L | 0.0585 ± 0.0018 | 0.07 ± 0.0088 | 0.0575 ± 0.0031
C79I | 0.0557 ± 0.0015 | 0.05351 ± 0.00052 | 0.05387 ± 0.00052
C79G | 0.0553 ± 0.0021 | 0.0552 ± 0.0013 | 0.0522 ± 0.0013
C79D | 0.05882 ± 0.00026 | 0.059 ± 0.0021 | 0.0564 ± 0.001

Variant | sfGFP reporter fluorescence [1] | sfGFP reporter fluorescence ([2]; ligand: 1 µM Pb) | sfGFP reporter fluorescence ([2]; ligand: 30 µM Zn)
C79N | 0.05919 ± 0.00026 | 0.0566 ± 0.0013 | 0.0557
C79S | 0.0592 ± 0.0018 | 0.059 ± 0.001 | 0.055
C79R | 0.06011 ± 0.00052 | 0.0629 ± 0.0018 | 0.059 ± 0.001
G98A | 0.0614 ± 0.00078 | 0.0762 ± 0.0021 | 0.793 ± 0.06
I125H | 0.0601 ± 0.0031 | 0.06011 ± 0.00052 | 0.057 ± 0.0023
H89D | 0.0623 ± 0.0021 | 0.0669 ± 0.0044 | 0.08283 ± 0.00052
H89A | 0.05992 ± 0.00026 | 0.05699 ± 0.00026 | 0.06725 ± 0.00026
H89W | 0.0607 ± 0.0023 | 0.0585 ± 0.00078 | 0.06084 ± 0.00052
E44A | 0.0612 ± 0.0015 | 0.0746 ± 0.0013 | 0.495 ± 0.044
D145A | 0.0599 ± 0.0013 | 0.0702 ± 0.0039 | 0.56 ± 0.036
S95A | 0.0625 ± 0.0013 | 0.0759 ± 0.0062 | 0.797 ± 0.063
Y22C | 0.0614 ± 0.0044 | 0.0623 ± 0.00052 | 0.05919 ± 0.00026
I90D | 0.0568 ± 0.0047 | 0.0561 ± 0.0015 | 0.085 ± 0.0057
I90A | 0.06249 ± 0.00026 | 0.0792 ± 0.0031 | 0.521 ± 0.0044
I90F | 0.0566 ± 0.0054 | 0.063 ± 0.0026 | 0.339 ± 0.033
P15S | 0.0621 ± 0.0029 | 0.0883 ± 0.0052 | 0.802 ± 0.01
P15D | 0.066 ± 0.0057 | 0.0689 ± 0.0021 | 0.286 ± 0.008
M60L P61N K104V G128M | 0.547 ± 0.013 | 1.69 ± 0.41 | 3.84 ± 0.1
M60L L107C G128M | 4.479 ± 0.028 | 4.98 ± 0.62 | 5.22 ± 0.29
M60L P61N K104V L107C | 0.535 ± 0.018 | 1.66 ± 1.4 | 3.35 ± 0.1
L110T | 0.05736 ± 0.00026 | 0.0601 ± 0.001 | 0.158 ± 0.0029
L110G | 0.05498 ± 0.00052 | 0.0548 ± 0.00078 | 0.0531 ± 0.0031

Variant | sfGFP reporter fluorescence [1] | sfGFP reporter fluorescence ([2]; ligand: 1 µM Pb) | sfGFP reporter fluorescence ([2]; ligand: 30 µM Zn)
L110D | 0.0575 ± 0.0015 | 0.0586 | 0.0574 ± 0.00078
P30C | 0.0599 ± 0.0023 | 0.0744 ± 0.0026 | 0.608 ± 0.025
P30A | 0.0623 ± 0.001 | 0.0748 ± 0.001 | 0.681 ± 0.087
P30I | 0.0563 ± 0.0039 | 0.0869 ± 0.001 | 0.926 ± 0.2
R20N | 0.06304 ± 0.00052 | 0.0674 ± 0.001 | 0.102 ± 0.0044
R20L | 0.06102 ± 0.00026 | 0.0597 ± 0.0026 | 0.0671 ± 0.0047
G128V | 0.0647 ± 0.00078 | 0.131 ± 0.011 | 1.54 ± 0.16
G124A | 0.05919 ± 0.00026 | 0.064 ± 0.0013 | 0.222 ± 0.015
L107G | 0.05956 ± 0.00026 | 0.0836 ± 0.0036 | 0.4444 ± 0.0044
L107F | 0.0528 ± 0.0015 | 0.0495 ± 0.0021 | 0.0636 ± 0.0039
L107H | 0.05662 ± 0.00026 | 0.0535 ± 0.0021 | 0.0821 ± 0.0015
L107A | 0.514 ± 0.0098 | 1.97 ± 0.12 | 2.84 ± 0.79
L107K | 0.0561 ± 0.0057 | 0.05864 ± 0.00052 | 0.0861 ± 0.0026
I3S | 0.05864 ± 0.00052 | 0.0605 ± 0.0036 | 0.2084 ± 0.0013
I3C | 0.0586 | 0.0737 ± 0.0052 | 0.774 ± 0.011
I3V | 0.0619 ± 0.001 | 0.124 ± 0.0044 | 1.32 ± 0.025
I3D | 0.06139 ± 0.00026 | 0.06011 ± 0.00052 | 0.08118 ± 0.00078
G6T | 0.0594 ± 0.0021 | 0.0608 ± 0.0015 | 0.0799 ± 0.0047
G6Q | 0.0592 ± 0.0023 | 0.05754 ± 0.00052 | 0.0746 ± 0.0039
G6W | 0.061 ± 0.0023 | 0.06011 ± 0.00052 | 0.06212 ± 0.00026
G6N | 0.0607 ± 0.00078 | 0.0599 ± 0.0013 | 0.0773 ± 0.0015
L126F | 0.05699 ± 0.00026 | 0.0583 ± 0.001 | 0.0586 ± 0.0021
